In PMC5749951, “Mechanistic insights into the active site and allosteric communication pathways in human nonmuscle myosin-2C” (eLife, 2017):

Key:
Details in all cases: both partners purified
[1] = biological target: T1, pyrene-labeled filamentous actin (UniProt P68135 1-377, pyrene label); experiment: stopped-flow pyrene-actin fluorescence; dissociation of the myosin motor domain from pyrene-actin; salt free stopped-flow buffer; samples treated with apyrase prior to the assay (rigor conditions)
[2] = biological target: T2, filamentous actin (F-actin) (UniProt P68135 1-377); experiment: stopped-flow light scattering; myosin motor domain binding to F-actin in the presence of ADP; salt free stopped-flow buffer
[3] = biological target: T2, filamentous actin (F-actin); experiment: stopped-flow light scattering + other: stopped-flow pyrene-actin fluorescence; dissociation equilibrium constant calculated as k-DA/k+DA; presence of ADP; salt free stopped-flow buffer
[4] = biological target: T2, filamentous actin (F-actin); experiment: stopped-flow light scattering + other: stopped-flow pyrene-actin fluorescence; dissociation equilibrium constant calculated as k-A/k+A; absence of nucleotide (rigor); salt free stopped-flow buffer
[5] = biological target: T2, filamentous actin (F-actin); experiment: stopped-flow light scattering; myosin motor domain binding to F-actin in a stopped-flow system; salt free stopped-flow buffer; samples treated with apyrase prior to the assay (rigor conditions)
[6] = biological target: T1, pyrene-labeled filamentous actin; experiment: stopped-flow pyrene-actin fluorescence; dissociation of the myosin motor domain from pyrene-actin in the presence of ADP; salt free stopped-flow buffer

Row | Binder | koff [1] [s⁻¹] | kon [2] [M⁻¹ s⁻¹] | Kd [3] [nM] | Kd [4] [nM] | kon [5] [M⁻¹ s⁻¹] | koff [6] [s⁻¹]
1 | human nonmuscle myosin-2C motor domain (amino acids 1-799) directly fused to spectrin repeats 1 and 2 from Dictyostelium alpha-actinin, C-terminal Flag-tag (domain or fragment, nonmuscle myosin-2C heavy chain (gene product of MYH14), human, motor domain, amino acids 1-799; alpha-actinin, Dictyostelium discoideum, spectrin repeats 1 and 2, used as artificial lever arm; Monomeric motor domain construct; also called NM2C; Hs NM2C; source: Sf9/baculovirus system, purified to electrophoretic homogeneity) MAAVTMSVPGRKAPPRPGPVPEAAQPFLFTPRGPSAGGGPGSGTSPQVEWTARRLVWVPSELHGFEAAALRDEGEEEAEVELAESGRRLRLPRDQIQRMNPPKFSKAEDMAELTCLNEASVLHNLRERYYSGLIYTYSGLFCVVINPYKQLPIYTEAIVEMYRGKKRHEVPPHVYAVTEGAYRSMLQDREDQSILCTGESGAGKTENTKKVIQYLAHVASSPKGRKEPGVPGELERQLLQANPILEAFGNAKTVKNDNSSRFGKFIRINFDVAGYIVGANIETYLLEKSRAIRQAKDECSFHIFYQLLGGAGEQLKADLLLEPCSHYRFLTNGPSSSPGQERELFQETLESLRVLGFSHEEIISMLRMVSAVLQFGNIALKRERNTDQATMPDNTAAQKLCRLLGLGVTDFSRALLTPRIKVGRDYVQKAQTKEQADFALEALAKATYERLFRWLVLRLNRALDRSPRQGASFLGILDIAGFEIFQLNSFEQLCINYTNEKLQQLFNHTMFVLEQEEYQREGIPWTFLDFGLDLQPCIDLIERPANPPGLLALLDEECWFPKATDKSFVEKVAQEQGGHPKFQRPRHLRDQADFSVLHYAGKVDYKANEWLMKNMDPLNDNVAALLHQSTDRLTAEIWKDVEGIVGLEQVSSLGDGPPGGRPRRGMFRTVGQLYKESLSRLMATLSNTNPSFVRCIVPNHEKRAGKLEPRLVLDQLRCNGVLEGIRICRQGFPNRILFQEFRQRYEILTPNAIPKGFMDGKQACEKMIQALELDPNLYRVGQSKIFFRAGVLAQLEEEREQTKSDYLKRANELVQWINDKQASLESRDFGDSIESVQSFMNAHKEYKKTEKPPKGQEVSELEAIYNSLQTKLRLIKREPFVAPAGLTPNEIDSTWSALEKAEQEHAEALRIELKRQKKIAVLLQKYNRILKKLENWATTKSVYLGSNETGDSITAVQAKLKNLEAFDGECQSLEGQSNSDLLSILAQLTELNYNGVPELTERKDTFFAQQWTGVKSSAETYKNT | ~0.15 | 530000 ± 10000 | ~8 | ~60 | 2.49e+06 ± 70000 | ~0.004
2 | human nonmuscle myosin-2C motor domain (amino acids 1-799) R788E fused to spectrin repeats 1 and 2 from Dictyostelium alpha-actinin, C-terminal Flag-tag (domain or fragment, nonmuscle myosin-2C heavy chain (gene product of MYH14), human, motor domain, amino acids 1-799, with R788E; alpha-actinin, Dictyostelium discoideum, spectrin repeats 1 and 2, used as artificial lever arm; Point mutant made by people on the fusion construct m1; also called Hs R788E; R788E (kinetic studies); source: Sf9/baculovirus system, purified to electrophoretic homogeneity) MAAVTMSVPGRKAPPRPGPVPEAAQPFLFTPRGPSAGGGPGSGTSPQVEWTARRLVWVPSELHGFEAAALRDEGEEEAEVELAESGRRLRLPRDQIQRMNPPKFSKAEDMAELTCLNEASVLHNLRERYYSGLIYTYSGLFCVVINPYKQLPIYTEAIVEMYRGKKRHEVPPHVYAVTEGAYRSMLQDREDQSILCTGESGAGKTENTKKVIQYLAHVASSPKGRKEPGVPGELERQLLQANPILEAFGNAKTVKNDNSSRFGKFIRINFDVAGYIVGANIETYLLEKSRAIRQAKDECSFHIFYQLLGGAGEQLKADLLLEPCSHYRFLTNGPSSSPGQERELFQETLESLRVLGFSHEEIISMLRMVSAVLQFGNIALKRERNTDQATMPDNTAAQKLCRLLGLGVTDFSRALLTPRIKVGRDYVQKAQTKEQADFALEALAKATYERLFRWLVLRLNRALDRSPRQGASFLGILDIAGFEIFQLNSFEQLCINYTNEKLQQLFNHTMFVLEQEEYQREGIPWTFLDFGLDLQPCIDLIERPANPPGLLALLDEECWFPKATDKSFVEKVAQEQGGHPKFQRPRHLRDQADFSVLHYAGKVDYKANEWLMKNMDPLNDNVAALLHQSTDRLTAEIWKDVEGIVGLEQVSSLGDGPPGGRPRRGMFRTVGQLYKESLSRLMATLSNTNPSFVRCIVPNHEKRAGKLEPRLVLDQLRCNGVLEGIRICRQGFPNRILFQEFRQRYEILTPNAIPKGFMDGKQACEKMIQALELDPNLYRVGQSKIFFEAGVLAQLEEEREQTKSDYLKRANELVQWINDKQASLESRDFGDSIESVQSFMNAHKEYKKTEKPPKGQEVSELEAIYNSLQTKLRLIKREPFVAPAGLTPNEIDSTWSALEKAEQEHAEALRIELKRQKKIAVLLQKYNRILKKLENWATTKSVYLGSNETGDSITAVQAKLKNLEAFDGECQSLEGQSNSDLLSILAQLTELNYNGVPELTERKDTFFAQQWTGVKSSAETYKNT | ~0.031 | 210000 ± 10000 | ~9 | ~47 | 660000 ± 30000 | ~0.002
3 | human nonmuscle myosin-2C motor domain (amino acids 1-799) R788K fused to spectrin repeats 1 and 2 from Dictyostelium alpha-actinin, C-terminal Flag-tag (domain or fragment, nonmuscle myosin-2C heavy chain (gene product of MYH14), human, motor domain, amino acids 1-799, with R788K; alpha-actinin, Dictyostelium discoideum, spectrin repeats 1 and 2, used as artificial lever arm; Point mutant made by people on the fusion construct m1; also called Hs R788K; R788K (kinetic studies); source: Sf9/baculovirus system, purified to electrophoretic homogeneity) MAAVTMSVPGRKAPPRPGPVPEAAQPFLFTPRGPSAGGGPGSGTSPQVEWTARRLVWVPSELHGFEAAALRDEGEEEAEVELAESGRRLRLPRDQIQRMNPPKFSKAEDMAELTCLNEASVLHNLRERYYSGLIYTYSGLFCVVINPYKQLPIYTEAIVEMYRGKKRHEVPPHVYAVTEGAYRSMLQDREDQSILCTGESGAGKTENTKKVIQYLAHVASSPKGRKEPGVPGELERQLLQANPILEAFGNAKTVKNDNSSRFGKFIRINFDVAGYIVGANIETYLLEKSRAIRQAKDECSFHIFYQLLGGAGEQLKADLLLEPCSHYRFLTNGPSSSPGQERELFQETLESLRVLGFSHEEIISMLRMVSAVLQFGNIALKRERNTDQATMPDNTAAQKLCRLLGLGVTDFSRALLTPRIKVGRDYVQKAQTKEQADFALEALAKATYERLFRWLVLRLNRALDRSPRQGASFLGILDIAGFEIFQLNSFEQLCINYTNEKLQQLFNHTMFVLEQEEYQREGIPWTFLDFGLDLQPCIDLIERPANPPGLLALLDEECWFPKATDKSFVEKVAQEQGGHPKFQRPRHLRDQADFSVLHYAGKVDYKANEWLMKNMDPLNDNVAALLHQSTDRLTAEIWKDVEGIVGLEQVSSLGDGPPGGRPRRGMFRTVGQLYKESLSRLMATLSNTNPSFVRCIVPNHEKRAGKLEPRLVLDQLRCNGVLEGIRICRQGFPNRILFQEFRQRYEILTPNAIPKGFMDGKQACEKMIQALELDPNLYRVGQSKIFFKAGVLAQLEEEREQTKSDYLKRANELVQWINDKQASLESRDFGDSIESVQSFMNAHKEYKKTEKPPKGQEVSELEAIYNSLQTKLRLIKREPFVAPAGLTPNEIDSTWSALEKAEQEHAEALRIELKRQKKIAVLLQKYNRILKKLENWATTKSVYLGSNETGDSITAVQAKLKNLEAFDGECQSLEGQSNSDLLSILAQLTELNYNGVPELTERKDTFFAQQWTGVKSSAETYKNT | 0.04 to 0.07 | 2.53e+06 ± 50000 | 26 to 43 | 24 to 42 | 1.65e+06 ± 30000 | 0.067 to 0.11
